In patent US10980859B2, “In vivo individualized systemic immunotherapeutic method and device” (Hangzhou Converd Co., Ltd., priority 2013, dated 2021):

Columns and labels:
[1] = tested on: Ly-6G+ DC precursors and CD11b+ DC in spleen; experiment: Flow cytometric analysis of GM-CSF induced expansion of DC and DC precursor in normal animals; type: in vivo; settings: s.c., healthy C57BL/6 mice
Method: Spleen Tissue Dissociation (for FIG. 6-8)
Briefly, mice were killed, and spleens were removed into cold culture medium and processed immediately. Surrounding mouse tissue and fat were removed. The spleens were minced into 2-3 mm fragments, and then crushed in cold culture medium using a flat tail of syringe piston. The spleen fragments were mixed up and down several times using a 1.5 mL micropipette with a tip cut to a diameter adapted to tissue fragment size. After that, the fragments were filtered through a […] nylon mesh cell strainer (BD Biosciences, San Diego, Calif., USA). The released cells were centrifuged at 1200 RPM for 2 min and stored in cold culture medium with 30% (v/v) FCS at 4° C. All cells from all incubation periods were pooled and counted.
Flow Cytometric Analysis of GM-CSF Induced Expansion of DC and DC Precursorin Normal Animals (for FIG. 6, 7)
52 male 6-8 weeks old C57BL/6 mice were randomly numbered and then divided into 13 groups depended on the random number. 12 groups were subcutaneously (s.c.) administered murine GM-CSF (PeproTech, Cat#96-315-03-1000) 2 μg on their back of the ribs, single injection from day 1 to 12 respectively. The last group was control. After 13 days, all animals were sacrificed. […]

CD11b+ DC in spleen = experiment: Flow cytometric analysis of GM-CSF induced expansion of DC in B16 melanoma cell murine model; type: in vivo, C57BL/6 mice; settings: s.c.
Description: Animal Model (for FIGS. 5-11)
The male immunocompetent C57BL/6 mice were purchased from Shanghai Experimental Animal Center (Shanghhai, China) and maintained in the animal facility at Tongji University (Shanghai, China) according to the animal research committee's guidelines of Tongji University. To establish the tumor-bearing animal model, the male immunocompetent C57BL/6 mice 6-8 weeks old, were subcutaneously (s.c.) inoculated on their back of the ribs with 2×10^6 B16 cells, and then monitored daily for tumor growth. After 6 days (when the tumors grew up to a mean tumor volume of around 70-100 mm^3), these tumor-bearing animals were randomly numbered and then divided into groups depended on the random number. Tumor volume was measured with a caliper each three days and calculated using the following formula: [L×W^2]/2 (L=length of tumor; W=width of tumor). […]
Briefly, mice were killed, and spleens were removed into cold culture medium and processed immediately. […] All cells from all incubation periods were pooled and counted. […]
63 male 6-8 weeks old C57BL/6 mice were subcutaneously (s.c.) inoculated on their back of the ribs with 2×10^6 B16 cells, and then monitored daily for tumor growth. […] After another 1.5, 2.5, 3.5 and 4.5 days, indicated groups were sacrificed and analyzed, respectively. […]

[2] = tested on: CD8+ TIL infiltration in B16 tumor; experiment: Immunofluorescence analysis of CD8+ TIL infiltration in tumor; type: in vivo, C57BL/6 mice; settings: B16 tumor-bearing mice
Description: Systemic Immunotherapeutic Combination Therapy (for FIG. 10, 11, 12)
72 male 6-8 weeks old C57BL/6 mice were subcutaneously (s.c.) inoculated on their back of the ribs with 2×10^6 B16 cells, and then monitored daily for tumor growth. These tumor-bearing animals were randomly numbered and then divided into 9 groups depended on the random number. Indicated groups were subjected to OVs (H101, 4×10^9 VPs) therapy i.t. and/or GM-CSF s.c. and/or PD-L1 mab (eBioscience, Cat#16-5982-85) i.p. or PBS (pH 7.4) only s.c. at indicated time points. After day 13, all animals were sacrificed and analyzed. Grouping and experiment design are illustrated in FIG. 17.
Immunofluorescence Analysis of CD8^+ TIL Infiltration in Tumor Using Systemic Immunotherapeutic Combination Therapy (for FIG. 12)
The level of CD8^+ TIL infiltration in tumor was determined by immunofluorescence staining. […] After the treatment with antifade mounting medium, fluorescence signals were detected under fluorescence microscope (BX43, OLYMPUS). Fluorescence images were analyzed using Image-Pro Plus 6.0 software and the histogram was made by GraphPad Prism 5 software and p<0.05 was considered statistically significant.

B1: murine GM-CSF: murine granulocyte-macrophage colony-stimulating factor (PeproTech, Cat#96-315-03-1000) (protein, UniProt P01587 18-141, looked up)
Granulocyte-macrophage …: APTRSPITVTRPWKHVEAIKEALNLLDDMPVTLNEEVEVVSNEFSFKKLTCVQTRLKIFEQGLRGNFTKLKGALNMTASYYQTYCPPTPETDCETQVTTYADFIDSLKTFLTDIPFECKKPGQK
B1 was tested, and the “CD11b+ DC in spleen” value [1] was “induces expansion of CD11b^+ DC at day 2-4”, the “Ly-6G+ DC precursors in spleen” value [1] was “induces expansion of Ly-6G^+ DC precursors at day 1” and the “CD11b+ DC in spleen” value (CD11b+ DC in spleen) was “induces up-regulation of CD11b^+ DC in spleen at Day 3.5”. The “CD8+ TIL infiltration in tumor” value [2] was “induces medium CD8^+ TIL infiltration”.
